Assay results as given in paper PMC8410870, “Reconstitution defines the roles of p62, NBR1 and TAX1BP1 in ubiquitin condensate formation and autophagy initiation” (Nature Communications, 2021).

B1: 6xHis-Strep-TEV-GFP-NBR1 (natural protein, human, UniProt Q14596 1-966, looked up)
chain: MEPQVTLNVTFKNEIQSFLVSDPENTTWADIEAMVKVSFDLNTIQIKYLDEENEEVSINSQGEYEEALKMAVKQGNQLQMQVHEGHHVVDEAPPPVVGAKRLAARAGKKPLAHYSSLVRVLGSDMKTPEDPAVQSFPLVPCDTDQPQDKPPDWFTSYLETFREQVVNETVEKLEQKLHEKLVLQNPSLGSCPSEVSMPTSEETLFLPENQFSWHIACNNCQRRIVGVRYQCSLCPSYNICEDCEAGPYGHDTNHVLLKLRRPVVGSSEPFCHSKYSTPRLPAALEQVRLQKQVDKNFLKAEKQRLRAEKKQRKAEVKELKKQLKLHRKIHLWNSIHGLQSPKSPLGRPESLLQSNTLMLPLQPCTSVMPMLSAAFVDENLPDGTHLQPGTKFIKHWRMKNTGNVKWSADTKLKFMWGNLTLASTEKKDVLVPCLKAGHVGVVSVEFIAPALEGTYTSHWRLSHKGQQFGPRVWCSIIVDPFPSEESPDNIEKGMISSSKTDDLTCQQEETFLLAKEERQLGEVTEQTEGTAACIPQKAKNVASERELYIPSVDLLTAQDLLSFELLDINIVQELERVPHNTPVDVTPCMSPLPHDSPLIEKPGLGQIEEENEGAGFKALPDSMVSVKRKAENIASVEEAEEDLSGTQFVCETVIRSLTLDAAPDHNPPCRQKSLQMTFALPEGPLGNEKEEIIHIAEEEAVMEEEEDEEDEEEEDELKDEVQSQSSASSEDYIIILPECFDTSRPLGDSMYSSALSQPGLERGAEGKPGVEAGQEPAEAGERLPGGENQPQEHSISDILTTSQTLETVPLIPEVVELPPSLPRSSPCVHHHGSPGVDLPVTIPEVSSVPDQIRGEPRGSSGLVNSRQKSYDHSRHHHGSSIAGGLVKGALSVAASAYKALFAGPPVTAQPIISEDQTAALMAHLFEMGFCDRQLNLRLLKKHNYNILQVVTELLQLNNNDWYSQRY
notes: NBR1, human, ORF amplified from HeLa cells cDNA; called full-length NBR1 in the results; Tag ends are read from the construct's name; a TEV site lies between Strep and GFP, cleavage is not mentioned; also called GFP-NBR1 WT; full-length NBR1; source: Sf9, purified (HisTrap, SEC on Superose 6); not shown: GFP, N-terminal, kept
B2: GST-FIP200 Claw (aa 1494-1594) (domain or fragment, UniProt Q8TDY2 1494-1594, looked up)
chain: EKIAIRDFQVGDLVLIILDERHDNYVLFTVSPTLYFLHSESLPALDLKPGEGASGASRRPWVLGKVMEKEYCQAKKAQNRFKVPLGTKFYRVKAVSWNKKV
notes: FIP200 Claw domain, aa 1494-1594; The tag's end is read from the construct's name; also called Claw domain of FIP200; source: expressed and purified as the GST-FIP200 CTR construct (previously described); not shown: GST, N-terminal, kept

Tests used:
Test in all cases: pull-down; microscopy-based protein-protein interaction assay: GST-tagged bait saturated on Glutathione Sepharose 4B beads, fluorescent prey at 2 µM, 25 mM HEPES pH 7.5, 150 mM NaCl, 1 mM DTT, 30 min-1 h at room temperature, beads imaged at the equilibrium by confocal microscopy
Settings in all cases: both partners purified
GST-FIP200 = biological target: T1, GST-FIP200 (UniProt Q8TDY2 1-1594)
T1 construct: FIP200, insect codon-optimized gene purchased from GenScript; The tag's end is read from the construct's name; In the functional rows on condensates the protein added was FIP200-GFP (GST cleaved off GST-FIP200-GFP with 3C protease); source: Sf9, purified (Glutathione Sepharose 4B, SEC on Superose 6 Increase); not shown: GST, N-terminal, kept

[1] = biological target: T2, GST fused to four M1-linked ubiquitin moieties (GST-4xUb) (UniProt P0CG48 1-76; P0CG48 1-76; P0CG48 1-76; P0CG48 1-76)
T2 construct: ubiquitin, first of four M1-linked (head-to-tail) moieties; ubiquitin, second of four M1-linked (head-to-tail) moieties; ubiquitin, third of four M1-linked (head-to-tail) moieties; ubiquitin, fourth of four M1-linked (head-to-tail) moieties; The tag's end is read from the construct's name; not shown: GST, N-terminal, kept
T2 sequence (P0CG48 1-304, one chain of several): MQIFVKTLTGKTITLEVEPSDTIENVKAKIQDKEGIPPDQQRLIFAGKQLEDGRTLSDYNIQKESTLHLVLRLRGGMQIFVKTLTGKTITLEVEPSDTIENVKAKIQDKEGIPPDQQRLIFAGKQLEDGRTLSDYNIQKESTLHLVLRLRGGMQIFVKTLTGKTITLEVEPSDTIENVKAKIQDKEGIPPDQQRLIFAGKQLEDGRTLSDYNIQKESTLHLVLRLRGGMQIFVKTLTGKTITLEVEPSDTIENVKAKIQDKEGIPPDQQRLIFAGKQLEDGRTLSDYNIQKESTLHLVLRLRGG

6xHis-Strep-TEV-GFP-NBR1 = biological target: B1

Binder | binding result (GST-FIP200) | binding result [1] | binding result (6xHis-Strep-TEV-GFP-NBR1)
B1 | binds | binds | –
B2 | – | – | binds
